Substrate in this series: O=[N+]([O-])c1ccc(O[C@@H]2O[C@H](CO)[C@@H](O)[C@H](O)[C@H]2O)cc1
Kind of series: purified protein. Conditions: 1 hour assay.

The mark [1] stands for this setting: average of two wild-type replicates (WT-1, WT-2).

Numbering of substitutions follows the chain as printed. Numbers in names are those of the source.

The Km is the substrate concentration at which the rate is half of its maximum. Broadly, the kcat is the maximal rate divided by the concentration of active sites.

B1: β-glucosidase B (BglB) (Paenibacillus polymyxa) (protein)
chain: MSENTFIFPATFMWGTSTSSYQIEGGTDEGGRTPSIWDTFCQIPGKVIGGDCGDVACDHFHHFKEDVQLMKQLGFLHYRFSVAWPRIMPAAGIINEEGLLFYEHLLDEIELAGLIPMLTLYHWDLPQWIEDEGGWTQRETIQHFKTYASVIMDRFGERINWWNTINEPYCASILGYGTGEHAPGHENWREAFTAAHHILMCHGIASNLHKEKGLTGKIGITLNMEHVDAASERPEDVAAAIRRDGFINRWFAEPLFNGKYPEDMVEWYGTYLNGLDFVQPGDMELIQQPGDFLGINYYTRSIIRSTNDASLLQVEQVHMEEPVTDMGWEIHPESFYKLLTRIEKDFSKGLPILITENGAAMRDELVNGQIEDTGRHGYIEEHLKACHRFIEEGGQLKGYFVWSFLDNFEWAWGYSKRFGIVHINYETQERTPKQSALWFKQMMAKNGF
On to B1, for which, under setting [1], the Km amounted to 9.8 ± 2.2 mM and the kcat came to 622.0 ± 45.8 min⁻¹.

B2: β-glucosidase B (BglB) (Paenibacillus polymyxa; I48K) (protein)
chain: B1 chain with I48K
For the protein B2, for the setting “technical triplicate”, the Km worked out at 4.2 ± 0.1 mM and the kcat turned out to be 299.9 ± 2.4 min⁻¹.

B3: β-glucosidase B (BglB) (Paenibacillus polymyxa; A360S) (protein)
chain: B1 chain with A360S
Regarding B3, where the note is “technical triplicate”, the Km turned out to be 12.7 ± 1.4 mM and the kcat was found to be 92.8 ± 3.2 min⁻¹.

B4: β-glucosidase B (BglB) (Paenibacillus polymyxa; I23V) (protein)
chain: B1 chain with I23V
On to B4, for which, for the setting “technical triplicate”, the Km came to 12.7 ± 0.53 mM and the kcat was determined as 564.0 ± 7.5 min⁻¹.

B5: β-glucosidase B (BglB) (Paenibacillus polymyxa; I23A) (protein)
chain: B1 chain with I23A
With B5, for the setting “technical triplicate”, the Km is on record as 17.1 ± 1.1 mM and the kcat is 92.7 ± 2.1 min⁻¹.

The values are drawn from doi:10.1101/2020.10.07.330233v1.
